Data published in PMC8770954.

What was measured:
Test in all cases: SPR; imaging SPR (IBIS MX96); IgG immobilised on a carboxymethyldextran sensor (CMD200M) by carbodiimide chemistry with a Continuous Flow Microspotter, printed at 300 and 150 nM; soluble receptor as analyte from 20 uM, 1:3 over 8 points; 5 min association and 5 min dissociation; equilibrium KD (Scrubber 2)
[1] = molecular target: Rh7B2 IgG1 (rhesusized variant of human 7B2) (rhesus macaque (Macaca mulatta))
[2] = molecular target: RhDH677.3 IgG1 (rhesusized variant of human DH677.3) (rhesus macaque (Macaca mulatta))
[3] = molecular target: RhDH827 IgG1 (rhesusized variant of human DH827) (rhesus macaque (Macaca mulatta))
Sequence of RhDH827 IgG1 (rhesusized variant of human DH827) (rhesus macaque (Macaca mulatta)) (heavy, as listed by the source, chain 1 of 2): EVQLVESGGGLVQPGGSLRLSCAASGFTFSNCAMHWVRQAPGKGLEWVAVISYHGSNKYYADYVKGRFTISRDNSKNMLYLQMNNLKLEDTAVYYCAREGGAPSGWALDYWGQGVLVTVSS
Sequence of RhDH827 IgG1 (rhesusized variant of human DH827) (rhesus macaque (Macaca mulatta)) (light, as listed by the source, chain 2 of 2): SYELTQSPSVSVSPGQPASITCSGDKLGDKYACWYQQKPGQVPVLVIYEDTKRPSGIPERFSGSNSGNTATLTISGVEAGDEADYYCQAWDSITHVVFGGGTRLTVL

Sequence of human FcγRIIIa (F158) (P08637 17-208): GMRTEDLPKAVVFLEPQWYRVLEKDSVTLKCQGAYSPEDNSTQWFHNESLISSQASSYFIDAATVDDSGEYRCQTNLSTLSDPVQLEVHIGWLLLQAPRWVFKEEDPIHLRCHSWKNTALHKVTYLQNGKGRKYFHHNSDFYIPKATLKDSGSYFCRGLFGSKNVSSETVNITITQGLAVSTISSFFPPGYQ
Sequence of Rh7B2 IgG1 (rhesusized variant of human 7B2) (rhesus macaque (Macaca mulatta)) (heavy, as listed by the source, chain 1 of 2): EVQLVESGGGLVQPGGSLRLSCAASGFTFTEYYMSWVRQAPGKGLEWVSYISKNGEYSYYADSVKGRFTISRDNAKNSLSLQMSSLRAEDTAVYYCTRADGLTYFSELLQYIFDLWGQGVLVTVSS
Sequence of Rh7B2 IgG1 (rhesusized variant of human 7B2) (rhesus macaque (Macaca mulatta)) (light, as listed by the source, chain 2 of 2): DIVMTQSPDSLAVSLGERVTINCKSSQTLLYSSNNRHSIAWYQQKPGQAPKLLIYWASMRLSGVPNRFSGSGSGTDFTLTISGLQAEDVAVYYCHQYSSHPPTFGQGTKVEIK
Sequence of RhDH677.3 IgG1 (rhesusized variant of human DH677.3) (rhesus macaque (Macaca mulatta)) (heavy, as listed by the source, chain 1 of 2): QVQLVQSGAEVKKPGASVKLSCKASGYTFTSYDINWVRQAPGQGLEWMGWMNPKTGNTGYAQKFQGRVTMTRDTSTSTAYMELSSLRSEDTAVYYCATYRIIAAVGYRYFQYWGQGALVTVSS
Sequence of RhDH677.3 IgG1 (rhesusized variant of human DH677.3) (rhesus macaque (Macaca mulatta)) (light, as listed by the source, chain 2 of 2): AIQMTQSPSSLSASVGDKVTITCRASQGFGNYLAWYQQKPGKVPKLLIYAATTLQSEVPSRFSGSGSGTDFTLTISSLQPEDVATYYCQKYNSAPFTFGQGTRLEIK

Kd [1] [µM]	Kd [2] [µM]	Kd [3] [µM]	Substance
6	4.7	5.7	rhesus macaque FcγRIIa-1 (receptor)
3.7	3.7	3.7	rhesus macaque FcγRIIb-1 (receptor)
5.5	4.9	5.5	rhesus macaque FcγRIIa-2 (receptor)
3.8	3.8	4.1	human FcγRIIIa (F158) (from UniProt P08637 17-208) (receptor)
4.4		3.7	human FcγRIIa (H131) (from UniProt P12318 34-217) (receptor)
7.7	6.2	6.9	rhesus macaque FcγRIIa-4 (receptor)
8.5	7.9		human FcγRIIb (from UniProt P31994 43-217) (receptor)
